From the DeepSol protein solubility set

experiment: soluble on expression in E. coli; label from the status in PepcDB or PDB records

| Sequence | soluble on expression in E. coli |
| --- | --- |
| MGSDKIHHHHHHMIVERVEEYLDRIEKINKDINALIEVKPEKVLEEAKKLEKDEKAKKKPLYGKIIVVKANINVEGYTISCASKTLENYIAPYDATVIEKIKENGGLIIGIANMDEFACGSSGETSYFGPTKNPRAKDRIPGGSSSGSAAAVSADLCDMALGSDTGGSIRNPASHCGVVGFKPSYGVVSRYGLCDLAMSFDQIGPLTKTAEDALLLTNIIKGKDLRDTTTVETKPFEKKDIKGFKVGVVKEFMDVADEKIRDKVEKAIEVFKDLGCEIVELSYKYVDLALPTYYLINYVEFFSSTRRYDGRRYGYKIEEVCGEEVLRRIMIGSMISQKEYSGKYYKNALKARNLMRNEMIKIMKDVDIIVGATVPKLPHKLGEKLTPMEMYSYDVLTVPANICGLCAGVVPCGDINGIPVGLQIQGKPFEDEKVLSAMIAFEKAME | not soluble |
| MGSDKIHHHHHHMRKFKIPNMGALVAFEAAARHESFTHTAKELFLTESAVSRQIATLEASLGVRLFARVKQRVVLTRAGKLYGTQVRRALEALDRDTLSIIAHGSGGGYLELAVLPTFASHWLIPRIKSFYDRTPDVRVNMGSRTDLFSFEDTHFEAAIHYGKPTWPGTSSDYLFGEEVVPICSPALLDGPVERVEDLLAYPLLHSTTRPGAWAQWFETHGVEDIRTMQGVRYELHTMLISAAAAGLGIALVPKFFVEEQLQQLGLVVPCDAATVGDSAYYLVYPTELSHSKPLESFRAWLLEQASAYAAPGRDGEEDDLDAEDDEDVE | not soluble |
| MLTLVGTYPPIRCGIATFNRDLREALLREGVPSQVAVVAHPEEVALPFPQEVVRVVAKEDREGYRALARLLRGPVILQHEYGLYGGKWGDYVLDLLEAQGPKLVVLHTLLQAPPPGLGEADLRYMQGLLRAMAERAQAFVALHPEGEGLLRALGVRIPVAHIPHGVPDLPRPPKEALKRALGLEGAFLLFTYGLLGPGKGLEFALKVLARVLPHNPRVRYLVAGRLHPNLERHEGRRYLERVREMAEALGVGEAFLLREGYLSEEELYRLAGAADLFLLPYPNLEQVSSGTLSYALALGKAVLSTPFRHARAALAAGRGVLLPLEEEAWAQAVLALAESPERLREMEERAYAYARDFTWPRVARAYRRLLEEVADVRPRVA | soluble |
| MNTAHGSDVTRPLDWLVSNFASDVPGVSHAVLVSADGLLMAASAHLPIDRAEQLAAVTSGLASLSAGVSRLFEGGGVLQSVVEMQHGYLLLMSVGDGSHLATLTDAECDIGQVGYEMAILVDRVGASVQATARTPQGL | not soluble |
| MKKRQSCRSFDYSKPVSKEDLISILEAGRLSPSACNSQPYEVFVAQGEKAKIIADAKMGSFNKFIDDCNTFLVIAEDNYSLPAKIGSLIKKVDFKAIDIGILTANLVNAASALNLETCILGVFDEKRIQKLIERKKRIRLVIALGYPKEGYPLREKTRKDFDDNMHFLA | not soluble |
| MGSDKIHHHHHHMWEIDQVRQGIVKNQIPSVNLWYGEERFFIQEALQLLKNSYLAQDPSGSGIEILSGKSTGPEQIVEIANTVSFFGGKLIIVEDIPYFQDGQGDALEPFFAYFENPNPGTCLVFLAQSVNRGRKFFKAIEKKGSILEFVSPKRQQEWSAWLDRELAARGKTMKPQVKALFLEWGGHQVGALSQELDKLALFVEGKEIRTEDVRSLVPQAVEATVFELLDAVAARSSKEAVQKLQQVLRQEHSLKVLTLLSRQVRLLLGARAMRQQGRGAEEAPRLLGIKPYEAQKIWQKAAQLTWEQLSWALRECLETDVAIKTGKGEPEFLLELMVVKFCEM | not soluble |
| MGSDKIHHHHHHMMKALILAGGSGERFWPLSTPETPKQFLKLFGNKSLMRWTFERVLEEMDPKDVIVVTHKDYVERTKKELPELPDENIIAEPMKKNTAPACFIGTKLADDDEPVLVLPADHRIPDTKKFWKTVKKALDALEKYDGLFTFGIVPTRPETGYGYIEIGEELEEGVHKVAQFREKPDLETAKKFVESGRFLWNSGMFLWKAREFIEEVKVCEPSIYENLKDVDPRNFEELKKAYEKVPSISVDYAVMEKSKKVRVVKADFEWSDVGNWSSVREIEGYTEESDEVILVDSDRVFVKTHNKPIAVVGLSDVIVIDTPNGILICKEEYAQKVREVVKKLFRTS | not soluble |
| MGSDKIHHHHHHMSKILSIIIPTYNAEKFLNKGLSSFLVCRDTDAQTAQHNCKMATEGRFEEIDIDKAILDKLEVIVVNDGTPDKSVEVAQKFVDWYPDTFVIVNKTNGGHGSAINTGVEHVRGKYLKVVDADDWVDTLALKKLITTLQVLEAAQEKQDTRVMDAMLMSYTTYDLQKAAKGDIPYEEHLVVPGTKHDKSVDIQNLGGPYSSQVIAKHFDDVYWGLTFHGILYNTAFYRGLAHKLAEGIFYEDQEYAAVPMAYADTIYVYDEQLYQYRIGDVSQSISMESSLKRLSHYETVIRTLIAEGGNSEEFAPGGKQIWGIKTAKFIDDYYQLCLIKNPDKKMLRDRMEKFTSEIKSADGYIYGLIEKNYKVFRMLNKLHMNEKVYQKVFIPMVHLIRK | not soluble |
| MSLKKVVIIGGGAAGMSAASRVKRLKPEWDVKVFEATEWVSHAPCGIPYVVEGLSTPDKLMYYPPEVFIKKRGIDLHLNAEVIEVDTGYVRVRENGGEKSYEWDYLVFANGASPQVPAIEGVNLKGVFTADLPPDALAIREYMEKYKVENVVIIGGGYIGIEMAEAFAAQGKNVTMIVRGERVLRRSFDKEVTDILEEKLKKHVNLRLQEITMKIEGEERVEKVVTDAGEYKAELVILATGIKPNIELAKQLGVRIGETGAIWTNEKMQTSVENVYAAGDVAETRHVITGRRVWVPLAPAGNKMGYVAGSNIAGKELHFPGVLGTAVTKFMDVEIGKTGLTEMEALKEGYDVRTAFIKASTRPHYYPGGREIWLKGVVDNETNRLLGVQVVGSDILPRIDTAAAMLMAGFTTKDAFFTDLAYAPPFAPVWDPLIVLARVLKEGHHHHHH | soluble |
| MGSDKIHHHHHHMPNTIHQDEGRPIVNSNDHDSPAESRASGVLNLTHLRTLVAVVQEGHLTRAAERLRISQPAASHHLRSLEQQFGLPLFTRTPQGVVPTAAGLQLSEQAARLLASSLELLSTASELRGSASGRIAIGTIEDPSVHAALPSLIKWFHEHYPLIELSIESRNSSSIRQGILTGEINAGFYVSCTNEANLREYEIGQRELVVVAPQSWRERVATATWPELAKLPWVMTTTGSAHSEITAQLFRSHNITIRPALEVNTERLLRAMVSQGVGLGFTRREFAEAEQARGAFFIVPISVHRTTMHFAYARSAETDPLIQILSRGLATVLPVAERLIPSTAKPAEK | not soluble |
| MAKSLRASSHLNAKSVKRRGVFQKAVDAREQRISDKLKEDLLKQKLEDLKKKEEQGIDMDVDEKKSNEEAPRKKISTSGWRDGRHHTYKKAKLMKQSKKKTSFTRF | soluble |
| MGSDKIHHHHHHMRRKDATWILTAQCPSRLGTVDVVTRFLKECRCYITEQQSFDDRHGERFFIRTAFQPEETDFDADTFQAAFAARAAEFDMVFELTAPEARMPVVIMVSKADHCLNDLLYRYRTGQLPVTIRAVISNHPDLEPLVAWHDLPYYHLPITPETKAEQEAEVWRVIESTGAELVILARYMQVLSSELCEKLTGKAINIHHSLLPGFKGAKPYHQAFEKGVKLVGATAHYINDDLDEGPIITQGVEPVSHADDPEDLVAKGRDIECLTLARAVSLHLERRVFLHARRTVVFAR | not soluble |
| MGGFGVGKTTLVRSVSEIRPLNTEEVMTQAGVGVDETGGVTSKTTTTVAFDFGRISLNDRMVLYLFGAPGQERFWFLWDRLFSGTLGAVVLVDTRRMDDSWYAIDRLEHHRTPFVVAVNRFDDDTARHSLDEIRLALALPDHVPLIDCDARVRTSGKHVLVTLVDHLYQLALAQESASLEHHHHHH | not soluble |
| MGHHHHHHSHMSFVECPYHSPAERLVAEADEGGPSAITGMGLCFRCLLFSFSGRSGVEGGRVDLNVFGSLGLQPWIGSSRCWGGPCSSALRCGWFSSWPPPSKSAIPIGGGSRGAGRVSRWPPPHWLEAWRVSPRPL | not soluble |
| MAHHHHHHMQIGLAGCSSSLHTSPSSGSAAGSGFYGARGQEAAASATVNSSGANGLCAGATMSSPSATPTLPPLPSTMDEPVDLFPLTPSVSMLQRHSKRSGRLLNESETMQEKHGQEYRFLVPWLAYAIDCTIAAHEVLRQKHGIPAHVSSPASPSANTLNGATDVKRSSRGSANGDPTYADTAGGSSGSGQAALPSPQAELNAFSTREVPAISVHDYLKRIVKYTYVSPSVLVCGCLYLDRLLCMHPCMLLHPYNVFKLFLTSTRMASKIMDTRTLNNHDFSVVGGVTNDDLNALEFLMVELLQNRLYFSRDTFDEYCRPLRLQAAHLTEEASDWGAETAMETPVETRSGVQHQPTRPFLARCNGSNTRSRRSSILSQNEYSVSIASQSGVSPLRSASRPAFPPSASTARSISVDTESIGPARAPASRGGSASTSAPRHPLGTSYSPALPHVPHTAANGGSSPALGAMGGLSGRGASGEDMLRVATHTNSIYQSSNGVWTGQTPPDSVTVLVGVEERGDERARSISLSAPRCGATTSWDATGRPSRLLAASTSTMAGLCTAALNGGRGGYESSPNVCAAPTYNRASASSSRGITASAEDFGAGSMVISYSDRTPTRRAFSHASREGIALPPVVCSGRSERSASVIGVAAQGQRLPPPPDQPRV | not soluble |
| MIEYAALKFNVVSDPMSETAKKVIVGMSGGVDSSVSAWLLQQQGYQVEGLFMKNWEEDDGEEYCTAAADLADAQAVCDKLGIELHTVNFAAEYWDNVFELFLAEYKAGRTPNPDILCNKEIKFKAFLEFAAEDLGADYIATGHYVRRADVDGKSRLLRGLDSNKDQSYFLYTLSHEQIAQSLFPVGELEKPQVRKIAEDLGLVTAKKKDSTGICFIGERKFREFLGRYLPAQPGKIITVDGDEIGEHQGLMYHTLGQRKGLGIGGTKEGTEEPWYVVDKDVENNILVVAQGHEHPRLMSVGLIAQQLHWVDREPFTGTMRCTVKTRYRQTDIPCTVKALDDDRIKVIFDEPVAAVTPGQSAVFYNGEVCLGGGIIEQRLPLPVLEHHHHHH | soluble |
| GSHMVGPTYSTAVLNCLKNLDLWCFDVFSLNQAADDHALRTIVFELLTRHNLISRFKIPTVFLMSFLDALETGYGKYKNPYHNQIHAADVTQTVHCFLLRTGMVHCLSEIELLAIIFAAAIHDYEHTGTTNSFHIQTKSECAIVYNDRSVLENHHISSVFRLMQDDEMNIFINLTKDEFVELRALVIEMVLATDMSCHFQQVKTMKTALQQLERIDKPKALSLLLHAADISHPTKQWLVHSRWTKALMEEFFRQGDKEAELGLPFSPLCDRTSTLVAQSQIGFIDFIVEPTFSVLTDVAEKSVQPLADEDSKSKNQPSFQWRQPSLDVEVGDPNPDVVSFRSTWVKRIQENKQKWKERAASGITN | soluble |
| GPQDPYEINLMEELTLKGVTQYYAYVTERQKVHCLNTLFSRLQINQSIIFCNSSQRVELLAKKISQLGYSCFYIHAKMRQEHRNRVFHDFRNGLCRNLVCTDLFTRGIDIQAVNVVINFDFPKLAETYLHRIGRSGRFGHLGLAINLITYDDRFNLKSIEEQLGTEIKPIPSNIDKSLYVAEYHSEPVEDEKP | soluble |
| LALHKVIMVGSGGVGKSALTLQFMYDEFVEDYEPTKADSYRKKVVLDGEEVQIDILDTAGLEDYAAIRDNYFRSGEGFLLVFSITEHESFTATAEFREQILRVKAEEDKIPLLVVGNKSDLEERRQVPVEEARSKAEEWGVQYVETSAKTRANVDKVFFDLMREIRTKKMSENK | soluble |
